Numbered stars: 1 amine (or outer) side, 2 acyl side, 3 side chain; on linkers, the order of the positions; unused ones are H or OH. Bridge positions count the residues as written; N and C are the ends. Side chains are listed from the residue outwards. Ends that are not written are not given here. * marks the point of attachment. C20 diacid = O=C(O)CCCCCCCCCCCCCCCCCCC(=O)*; γGlu = O=C(O)[C@H](CCC(=O)[*:2])N[*:1]; AEEA = NCCOCCOCC(=O)O
B1: N^ε1-[2-[2-[2-[[(4S)-4-carboxy-4-(19-carboxynonadecanoylamino)butanoyl]amino]ethoxy]ethoxy]acetyl]-[His14,Arg17,Pro21,Pro27]-h-amylin (peptide)
peptide: K([AEEA-γGlu-C20 diacid])CNTATCATQRLAHFLRHSSPNFGAIPSSTNVGSNTY-NH2
modifications: disulfide 2-7; N-terminus assumed
SMILES: CC[C@H](C)[C@H](NC(=O)[C@H](C)NC(=O)CNC(=O)[C@H](Cc1ccccc1)NC(=O)[C@H](CC(N)=O)NC(=O)[C@@H]1CCCN1C(=O)[C@H](CO)NC(=O)[C@H](CO)NC(=O)[C@H](Cc1c[nH]cn1)NC(=O)[C@H](CCCNC(=N)N)NC(=O)[C@H](CC(C)C)NC(=O)[C@H](Cc1ccccc1)NC(=O)[C@H](Cc1c[nH]cn1)NC(=O)[C@H](C)NC(=O)[C@H](CC(C)C)NC(=O)[C@H](CCCNC(=N)N)NC(=O)[C@H](CCC(N)=O)NC(=O)[C@@H](NC(=O)[C@H](C)NC(=O)[C@@H]1CSSC[C@H](NC(=O)[C@@H](N)CCCCNC(=O)COCCOCCNC(=O)CC[C@H](NC(=O)CCCCCCCCCCCCCCCCCCC(=O)O)C(=O)O)C(=O)N[C@@H](CC(N)=O)C(=O)N[C@@H]([C@@H](C)O)C(=O)N[C@@H](C)C(=O)N[C@@H]([C@@H](C)O)C(=O)N1)[C@@H](C)O)C(=O)N1CCC[C@H]1C(=O)N[C@@H](CO)C(=O)N[C@@H](CO)C(=O)N[C@H](C(=O)N[C@@H](CC(N)=O)C(=O)N[C@H](C(=O)NCC(=O)N[C@@H](CO)C(=O)N[C@@H](CC(N)=O)C(=O)N[C@H](C(=O)N[C@@H](Cc1ccc(O)cc1)C(N)=O)[C@@H](C)O)C(C)C)[C@@H](C)O
notes: synthetic analogue of human amylin; also called compound 69
B2: N^ε1-[2-[2-[2-[[(4S)-4-carboxy-4-(19-carboxynonadecanoylamino)butanoyl]amino]ethoxy]ethoxy]acetyl]-[Arg14,Arg17,Pro21,Pro27]-h-amylin (peptide)
peptide: K([AEEA-γGlu-C20 diacid])CNTATCATQRLARFLRHSSPNFGAIPSSTNVGSNTY-NH2
modifications: disulfide 2-7; N-terminus assumed
SMILES: CC[C@H](C)[C@H](NC(=O)[C@H](C)NC(=O)CNC(=O)[C@H](Cc1ccccc1)NC(=O)[C@H](CC(N)=O)NC(=O)[C@@H]1CCCN1C(=O)[C@H](CO)NC(=O)[C@H](CO)NC(=O)[C@H](Cc1c[nH]cn1)NC(=O)[C@H](CCCNC(=N)N)NC(=O)[C@H](CC(C)C)NC(=O)[C@H](Cc1ccccc1)NC(=O)[C@H](CCCNC(=N)N)NC(=O)[C@H](C)NC(=O)[C@H](CC(C)C)NC(=O)[C@H](CCCNC(=N)N)NC(=O)[C@H](CCC(N)=O)NC(=O)[C@@H](NC(=O)[C@H](C)NC(=O)[C@@H]1CSSC[C@H](NC(=O)[C@@H](N)CCCCNC(=O)COCCOCCNC(=O)CC[C@H](NC(=O)CCCCCCCCCCCCCCCCCCC(=O)O)C(=O)O)C(=O)N[C@@H](CC(N)=O)C(=O)N[C@@H]([C@@H](C)O)C(=O)N[C@@H](C)C(=O)N[C@@H]([C@@H](C)O)C(=O)N1)[C@@H](C)O)C(=O)N1CCC[C@H]1C(=O)N[C@@H](CO)C(=O)N[C@@H](CO)C(=O)N[C@H](C(=O)N[C@@H](CC(N)=O)C(=O)N[C@H](C(=O)NCC(=O)N[C@@H](CO)C(=O)N[C@@H](CC(N)=O)C(=O)N[C@H](C(=O)N[C@@H](Cc1ccc(O)cc1)C(N)=O)[C@@H](C)O)C(C)C)[C@@H](C)O
notes: synthetic analogue of human amylin; also called compound 82
B3: N^ε1-[2-[2-[2-[[(4S)-4-carboxy-4-(19-carboxynonadecanoylamino)butanoyl]amino]ethoxy]ethoxy]acetyl]-[Arg14,Arg17,Pro21,Pro27,Pro31]-h-amylin (peptide)
peptide: K([AEEA-γGlu-C20 diacid])CNTATCATQRLARFLRHSSPNFGAIPSSTPVGSNTY-NH2
modifications: disulfide 2-7; N-terminus assumed
SMILES: CC[C@H](C)[C@H](NC(=O)[C@H](C)NC(=O)CNC(=O)[C@H](Cc1ccccc1)NC(=O)[C@H](CC(N)=O)NC(=O)[C@@H]1CCCN1C(=O)[C@H](CO)NC(=O)[C@H](CO)NC(=O)[C@H](Cc1c[nH]cn1)NC(=O)[C@H](CCCNC(=N)N)NC(=O)[C@H](CC(C)C)NC(=O)[C@H](Cc1ccccc1)NC(=O)[C@H](CCCNC(=N)N)NC(=O)[C@H](C)NC(=O)[C@H](CC(C)C)NC(=O)[C@H](CCCNC(=N)N)NC(=O)[C@H](CCC(N)=O)NC(=O)[C@@H](NC(=O)[C@H](C)NC(=O)[C@@H]1CSSC[C@H](NC(=O)[C@@H](N)CCCCNC(=O)COCCOCCNC(=O)CC[C@H](NC(=O)CCCCCCCCCCCCCCCCCCC(=O)O)C(=O)O)C(=O)N[C@@H](CC(N)=O)C(=O)N[C@@H]([C@@H](C)O)C(=O)N[C@@H](C)C(=O)N[C@@H]([C@@H](C)O)C(=O)N1)[C@@H](C)O)C(=O)N1CCC[C@H]1C(=O)N[C@@H](CO)C(=O)N[C@@H](CO)C(=O)N[C@H](C(=O)N1CCC[C@H]1C(=O)N[C@H](C(=O)NCC(=O)N[C@@H](CO)C(=O)N[C@@H](CC(N)=O)C(=O)N[C@H](C(=O)N[C@@H](Cc1ccc(O)cc1)C(N)=O)[C@@H](C)O)C(C)C)[C@@H](C)O
notes: synthetic analogue of human amylin; also called compound 64
B4: N^ε1-[2-[2-[2-[[(4S)-4-carboxy-4-(19-carboxynonadecanoylamino)butanoyl]amino]ethoxy]ethoxy]acetyl]-[Ala14,Arg17,Pro21,Pro27,Pro31]-h-amylin (peptide)
peptide: K([AEEA-γGlu-C20 diacid])CNTATCATQRLAAFLRHSSPNFGAIPSSTPVGSNTY-NH2
modifications: disulfide 2-7; N-terminus assumed
SMILES: CC[C@H](C)[C@H](NC(=O)[C@H](C)NC(=O)CNC(=O)[C@H](Cc1ccccc1)NC(=O)[C@H](CC(N)=O)NC(=O)[C@@H]1CCCN1C(=O)[C@H](CO)NC(=O)[C@H](CO)NC(=O)[C@H](Cc1c[nH]cn1)NC(=O)[C@H](CCCNC(=N)N)NC(=O)[C@H](CC(C)C)NC(=O)[C@H](Cc1ccccc1)NC(=O)[C@H](C)NC(=O)[C@H](C)NC(=O)[C@H](CC(C)C)NC(=O)[C@H](CCCNC(=N)N)NC(=O)[C@H](CCC(N)=O)NC(=O)[C@@H](NC(=O)[C@H](C)NC(=O)[C@@H]1CSSC[C@H](NC(=O)[C@@H](N)CCCCNC(=O)COCCOCCNC(=O)CC[C@H](NC(=O)CCCCCCCCCCCCCCCCCCC(=O)O)C(=O)O)C(=O)N[C@@H](CC(N)=O)C(=O)N[C@@H]([C@@H](C)O)C(=O)N[C@@H](C)C(=O)N[C@@H]([C@@H](C)O)C(=O)N1)[C@@H](C)O)C(=O)N1CCC[C@H]1C(=O)N[C@@H](CO)C(=O)N[C@@H](CO)C(=O)N[C@H](C(=O)N1CCC[C@H]1C(=O)N[C@H](C(=O)NCC(=O)N[C@@H](CO)C(=O)N[C@@H](CC(N)=O)C(=O)N[C@H](C(=O)N[C@@H](Cc1ccc(O)cc1)C(N)=O)[C@@H](C)O)C(C)C)[C@@H](C)O
notes: synthetic analogue of human amylin; also called compound 72

Target: T1, rat calcitonin receptor (rat, UniProt P32214 25-516)
T1 construct: whole, on cells; also called rCTR; rat calcitonin (a) receptor
T1 sequence (looked up): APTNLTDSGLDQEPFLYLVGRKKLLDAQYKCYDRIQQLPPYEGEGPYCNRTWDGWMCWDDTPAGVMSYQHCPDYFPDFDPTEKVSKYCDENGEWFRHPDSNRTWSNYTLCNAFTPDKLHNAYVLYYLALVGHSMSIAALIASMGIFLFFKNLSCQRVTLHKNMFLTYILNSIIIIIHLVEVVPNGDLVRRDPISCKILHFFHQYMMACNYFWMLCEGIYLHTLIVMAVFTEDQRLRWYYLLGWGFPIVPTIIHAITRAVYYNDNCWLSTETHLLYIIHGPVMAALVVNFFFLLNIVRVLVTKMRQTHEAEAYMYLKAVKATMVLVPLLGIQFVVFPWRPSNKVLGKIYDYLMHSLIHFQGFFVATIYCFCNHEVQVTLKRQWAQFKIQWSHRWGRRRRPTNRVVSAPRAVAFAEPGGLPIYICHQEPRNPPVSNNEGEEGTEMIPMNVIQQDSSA
Experiment: ratio of binding IC50s: rat calcitonin receptor over rat amylin receptor (reference)

Ratio rCT/rAmylin binding | Binder
104 | B1
87 | B2
64.7 | B3
259 | B4

Target: T2, human calcitonin receptor (human, UniProt P30988 25-474)
T2 construct: whole, on cells; also called hCTR; hCT
T2 sequence (looked up): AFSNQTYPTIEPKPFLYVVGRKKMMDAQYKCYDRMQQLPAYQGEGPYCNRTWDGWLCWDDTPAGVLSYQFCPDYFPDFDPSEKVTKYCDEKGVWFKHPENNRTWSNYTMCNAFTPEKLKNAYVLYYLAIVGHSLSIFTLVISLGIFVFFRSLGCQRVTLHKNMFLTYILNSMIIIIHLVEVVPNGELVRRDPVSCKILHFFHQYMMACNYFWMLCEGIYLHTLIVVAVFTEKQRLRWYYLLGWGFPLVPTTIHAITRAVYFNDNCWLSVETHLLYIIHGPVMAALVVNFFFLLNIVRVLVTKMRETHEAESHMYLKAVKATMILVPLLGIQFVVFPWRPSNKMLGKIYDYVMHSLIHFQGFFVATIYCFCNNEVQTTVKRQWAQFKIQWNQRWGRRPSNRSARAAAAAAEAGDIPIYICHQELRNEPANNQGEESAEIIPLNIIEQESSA
Experiment: ratio of binding IC50s: human calcitonin receptor over human amylin receptor (reference)
Description: The resulting pellet was resuspended, homogenized and centrifuged (20.000 rpm, 15 min) in a buffer containing 20 mM Na-HEPES and 0.1 mM EDTA (pH 7.4, buffer 2). The resulting pellet was resuspended in buffer 2 and protein concentration was measured (BCA protein Assay, Pierce). The homogenate was kept cold during the whole procedure. The membranes were kept at −80° C. until use. The assay was performed in a 384 well Optiplate (PerkinElmer) in a total volume of 40 ul. Membranes were mixed with SPA beads. Final concentration of membranes 35 ng/μL final and SPA beads was 0.05 mg/well. Test-compounds were dissolved in DMSO and further diluted in assay buffer (50 mM Hepes, pH 7.4, 1 mM CaCl2, 5 mM MgCl₂, 0.1% OA and 0.02% Tween20). […] The final mixture was incubated with shaking at 400 rpm for 120 min at 25° C. prior to centrifugation (1500 rpm, 10 min). Samples were analyzed on TopCounter™ (Packard). The IC₅₀ was calculated using (one site binding competition analysis) GraphPad Prism5 as a measure of receptor affinity.
Membranes were prepared in the following way; the cells were rinsed with PBS and incubated with Versene for approximately 5 min before harvesting. The cells were flushed with PBS and the cell-suspension was centrifuged for 5 min at 1000 rpm. Cells were homogenized (Ultrathurrax) in a buffer containing 20 mM Na-HEPES and 10 mM EDTA (pH 7.4) and centrifuged at 20.000 rpm for 15 min. The resulting pellet was resuspended, homogenized and centrifuged (20.000 rpm, 15 min) in a buffer containing 20 mM Na-HEPES and 0.1 mM EDTA (pH 7.4, buffer 2). The resulting pellet was resuspended in buffer 2 and protein concentration was measured (BCA protein Assay, Pierce). The homogenate was kept cold during the whole procedure. The membranes were kept at −80° C. until use. Assay was performed in a 384 well Optiplate (PerkinElmer) in a total volume of 40 ul. Membranes were mixed with SPA beads.

Ratio hCT/hAmylin binding | Binder
65.3 | B1
140 | B2
126 | B3
247 | B4

Target: T1, rat calcitonin receptor
Experiment: SPA competition with 125I-calcitonin, membranes of BHK cells with rat calcitonin receptor (Assay VIII)

IC50 | Binder
46.8 nM | B1
143 nM | B2
128 nM | B3
221 nM | B4

Target: T3, rat amylin receptor (rat calcitonin receptor + rat RAMP 3) (rat, UniProt P32214 25-516; Q9JJ73 23-147)
T3 construct: whole, on cells; also called rAmylin-R; rat amylin 3(a) receptor
T3 sequence (looked up) 1: T1 sequence (looked up)
T3 sequence (looked up) 2: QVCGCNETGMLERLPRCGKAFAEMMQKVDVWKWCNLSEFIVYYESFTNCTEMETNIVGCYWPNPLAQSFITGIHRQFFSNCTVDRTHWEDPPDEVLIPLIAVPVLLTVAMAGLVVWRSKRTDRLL
Experiment: SPA competition with 125I-rat amylin, membranes of BHK cells with rat calcitonin receptor + rat RAMP3 (Assay VI)

IC50 | Binder
0.45 nM | B1
1.64 nM | B2
1.97 nM | B3
0.851 nM | B4

From patent US20140087995A1 (published 2014)
